Measurements as given in the DeepSol protein solubility set.

Assay: soluble on expression in E. coli; label from the status in PepcDB or PDB records

Sequence	soluble on expression in E. coli
MENNTILHNYQDWLEHHKMPAGKKKTLVAAIELFSQQGYNGTSTAQIAEKAGISQATIFKYFKTKSDLLSEIMQPMIPELKRDFFPKLQTYTKLEEVVHFIVQDRFQFLTQNADLIKILIQEALVNVKLRKTLLTNIQLTISKDFMAYWQTLKQINPQINPNLSGIEVIRTNVGLLFAYFTQRFILNIPTPSEQKDLLLIEKQILTLLILDTH	not soluble
MASYSDIVDSVRKCQFSPLYLLAGEEPFYIDELATLLETHVVPVDEWDFNRVILYGDKTSVADIANEARRFPMMGRRQLIVVREAQLVDNIDLLEAHYGTFPDTTILVIAYKKKPDKRKAFYTKAEKFGKVFVSETIPDYKMPDFILSAAAGKKLSVSPEVAYMLADYLGNDLEKLMNELDKLILITQDSRGVVTSEIVEQHIGVSKSFNNFELLRAIVNRETGKTFRIAHYFARNEKEHPIQATLPVLFNYFSNLMIVCYLPQKKPDAIMKALSIRNFQVRDYMTGLKMYSTRKVFDIIHEIRMTDARSKGVDTTGTFAGSGDLLRELLHFIFH	not soluble
MPNIKIFSGSSHQDLSQKIADRLGLELGKVVTKKFSNQETCVEIGESVRGEDVYIVQSGCGEINDNLMELLIMINACKIASASRVTAVIPCFPYARQDKKDKSRAPISAKLVANMLSVAGADHIITMDLHASQIQGFFDIPVDNLYAEPAVLKWIRENISEWRNCTIVSPDAGGAKRVTSIADRLNVDFALIHKERKKANEVDRMVLVGDVKDRVAILVDDMADTCGTICHAADKLLSAGATRVYAILTHGIFSGPAISRINNACFEAVVVTNTIPQEDKMKHCSKIQVIDISMILAEAIRRTHNGESVSYLFSHVPLLEHHHHHH	soluble
MKVIINGKEFDIPKGVRFGELSHEIEKAGIEFGCTDGQCGVCVARVIKGMECLNEPSEEEEETLWRVGAVDEDQRLTCQLVIEKEDCDEIVIESED	not soluble
MAGISLLLDQAFHRHFADFFTLRSVDNRVLLNLASPRHQLAKQSLVLLAKCCFLFHLSVSISNFPTVYPTRSTIDRFKRIFPHSPRVNADLSSSSWQTSRRNYCDHALEEYVDKIFVDEAVNELQTIQDILRWSVSRFSAANIWYGHGTDNPWDEAVQLVLPSLYLPLDIPEDMRTARLTSSEKHRIVERVIRRVNERIPVAYLTNKAWFCGHEFYVDERVLVPRSPIGELINNKFAGLISKQPQHILDMCTGSGCIAIACAYAFPEAEVDAVDISPDALAVAEQNIEEHGLIHNVIPIRSDLFRDLPKVQYDLIVTNPPYVDAEDMSDLPNEYRHEPELGLASGTDGLKLTRRILGNAADYLADDGVLICEVGNSMVHLMEQYPDVPFTWLEFDNGGDGVFMLTKEQLIAAREHFAIYKD	not soluble
QGMRAFLRVVETGNFTRASASLNMPKATVTNLIQGLEAHLRTKLLNRTTRRVLVTPDGALYYERAARLLSDLDELDGSLSTAQSLPKGRLRVETASAFANLVIIPALPEFHKKYPDIQIDLGVSDRTIDYLAENVDCAIRAGTLTDQSLIARRITEMKFVACASRDFLERHPVPQHPSDLEKNCYVVGYFLPKTGQQMPFHFRRGNEEIEVSGRYTMAANESTTYLAAARAGLGVIQAPLFMVREDLRNGTMVPVLPDWQVEPMPIYLVYPPNRHLSSRLRVFADWVVKVMAQSQNGEGS	soluble
MSVVSLVGQMYKREKPIPEWKTLMLRELEELFSKHRVVLFADLTGTPTFVVQRVRKKLWKKYPMMVAKKRIILRAMKAAGLELDDNLLDDLVRGQMLLVFADGNPFKIVKEVEKEKVAMPVKPGDKAETEIRIPEGMTNLTPGPILSVFGKLRIQYQVRGGKIYIAKETVVAKPGDVISEDLAGLLMALGIRPIEKGVRVKFAIDGGVLITEDLLRPDIEAFRGDVIDAAKEALGLATEIVYMPVPEAVESAIVKAALAASALAAETGFIAPGTVEDVVRKAIAEEAAVVALLGDKARELGIEEAAPAAAPAAEEKAEEEKKEEEEEKKEDQELSGLDSIFGGF	soluble
MEKFDVIIIGAGPAGLFAAYELVERSNMKVLIIDEGGDVDQRVCPMDQLGYCIGCKPCHIMSGVGGAGGLSDGTVNLRPDIGGDLTELTNDENYSWQLVWEVDQILLKHGAPRNLYKGDPDQIRYWERKAAQAGVKFIPIIQRHIGSDNTPRVIKSIKQYLESKGVKFLLWTKALEFNKGWVKVRRGKDVFTIEGKYIIVAPGRGGAEWFHEIAQKIGLKARHGPIDVGVRVEVPAIIMEPITSINHDPKFHIYTDTYDDFVRTFCTNPYGFVVEERYDGYVGVNGHSMRNKKSNNTNFAFLTRIELTEPVEDTTAYGRSIAQLATTIGGGRPILQRLGDLRRGRRSTWSRIRKSNVEPTLKHVTPGDIAMALPHRVVTNIIEGLEKLDKVIPGVASDHTLLYAPEIKYYAMKVEVNELLETSIENVFAAGDGAGLSRDIVNAAATGIMAARGILVKEGLYNLKDFKKPGNWKEKIESLEPEELEHHHHHH	soluble
MGSDKIHHHHHHMSLDNHYDVDAALDKALKDDFLRKATRRATDRLRNNKLAITEELGNWEEWRQVGERIRNHVVENLDYYLDMLIENVEKNGGHVHLAKTPEDGVRIVQEIFQKHGFKSVIKSKSMITEEIHLNPVLEKDGIEVVETDLAEYIIQIADEPPSHIIVPAMHKTREQIAKLFEPIAGHPLESDTPTLTKFAREQLREKFLTSKIGITGCNFAVADTGTITMVTNEGNGRLTSTMPEVQITMMGMERIVPSYKELSVLLNLLARSATGQRLSVYTTMITPPKREGDIDGPKEWHLVILDHNRSEILGDEDFRSSLRCIRCGACFNVCPVYRQVGGHAYGSVYSGPIGVVITPLLEQNYEKWGHLPYYSSLCAACSEACPVRIPLQDLIVKHRDRKVLKGYTSGVEKKIFKYYGYYFSHPKTLSKFVRLGSKFQFILMRNGRIASGPPPLSNWTNSKTLPPVAKQMFRDQWPELEKKLKTMQRGDQ	not soluble
MAHHHHHHMKVVEKQLSKKTLKVKKETEKNSTGFMEKKKINKKEKKIYKNNYNNDNIKEEEDILLNQDDFEKKKKKSLENKILLSKKLKEIKLQFKDDDTINNSKKNNWIERLDITSTEYYYLKKTELFGISESREKQLQNITHMNVIQALQKLQELNIKFNRPYDFLADMLKSDIHMEKIRQKILKEHEQAEVRENNKLKRINKKFLKKCGSQKIKSHKEALEKKQNLLKIDQLKKTNNLQNLNVQEFFIKHSKDHDYKAGKITAKKDMKHKKKNFNNKAKKDKGIKNKQIGKKTSINNKRKASSKNSRKSKKMKKKHKHRK	soluble
SESSESKASSGLPIDLRGKRAFIAGIADDNGYGWAVAKSLAAAGAEILVGTWVPALNIFETSLRRGKFDQSRVLPDGSLMEIKKVYPLDAVFDNPEDVPEDVKANKRYAGSSNWTVQEAAECVRQDFGSIDILVHSLANGPEVSKPLLETSRKGYLAAISASSYSFVSLLSHFLPIMNPGGASISLTYIASERIIPGYGGGMSSAKAALESDTRVLAFEAGRKQNIRVNTISAGPLGSRAAKAIGFIDTMIEYSYNNAPIQKTLTADEVGNAAAFLVSPLASAITGATIYVDNGLNSMGVALDSPVFKDLDK	soluble
MTPLSSPLSQYWQTVVERLPEGFTETSLSVQAKSVLTFSDFALDSVIAHPEWLAELESASPQADEWRHYAGWLQEALAGVCDDASLMRELRFFRRRIMVRIAWAQTLSLVDDETILQQLSHLAETLIVGARDWLYAACCREWGTPCNPQGVPQPLLILGMGKLGGGELNFSSDIDLIFAWPEHGETRGGRRELDNAQFFTRLGQRLIKALDQPTMDGFVYRVDMRLRPFGDSGPLVLSFAALEDYYQEQGRDWERYAMVKARLMGDNDDAWSRELRAMLRPFVFRRYIDFSVIQSLRNMKGMIAREVRRRGLKDNIKLGAGGIREIEFIVQVFQLIRGGREPSLQSRSLLPTLDAIAALHLLPENDVAQLRVAYLFLRRLENLLQSINDEQTQTLPADDLNRARLAWGMKAENWPQLVGELTDHMANVRRVFNELIGDDEADTPQEEERSEPWREVWQDALQEDDSTPVLAHLADEERRQVLTLIADFRKELDKRPIGPRGRQVLDQLMPHLLADVCSREDAAVTLSRITPLLAGIVTRTTYLELLSEFPGALKHLIMLCAASPMIASQLARYPLLLDELLDPGTLYQPTATDAYRDELRQYLLRVPEEDEEQQLEALRQFKQAQLLRIAAADIAGTLPVMKVSDHLTWLAEAMIDAVVQQAWTQMVARYGQPAHLDERQGRGFAVVGYGKLGGWELGYSSDLDLIFLHDCPMDVMTNGEREIDGRQFYLRLAQRIMHLFSTRTSSGILYEVDARLRPSGAAGMLVTSADAFADYQQHEAWTWEHQALVRARVVYGDPQLTSQFDAVRRTIMTTARDGKTLQTEVREMREKMRAHLGNKHRDRFDIKADEGGITDIEFIAQYLVLRYAHEKPKLTRWSDNVRILELLAQNGIMDEHEAQALTVAYTTLRDELHHLALQELPGHVAQTCFSKERALVQASWRKWLVAV	not soluble
